# Reference: patent US5994296A, “Human mutant tissue factor compositions useful as tissue factor antagonists” (priority 1998, dated 1999)
# Residue numbers refer to the chain shown, from its start.
# B1: Ile-22 to Ala: human tissue factor mutant with alanine substituted for Ile-22 (protein, UniProt P13726 33-295, looked up, variant I22A)
# Tissue factor: SGTTNTVAAYNLTWKSTNFKTALEWEPKPVNQVYTVQISTKSGDWKSKCFYTTDTECDLTDEIVKDVKQTYLARVFSYPAGNVESTGSAGEPLYENSPEFTPYLETNLGQPTIQSFEQVGTKVNVTVEDERTLVRRNNTFLSLRDVFGKDLIYTLYYWKSSSSGKKTAKTNTNEFLIDVDKGENYCFSVQAVIPSRTVNRKSTDSPVECMGQEKGEFREIFYIIGAVVFVVIILVIILAISLHKCRKAGVGQSWKENSPLNVS
# B2: Phe-140: human tissue factor alanine mutant at Phe-140 (protein, UniProt P13726 33-295, looked up, variant F140A)
# Tissue factor: B1 Tissue factor with A22I, F140A
# B3: Arg-135: human tissue factor alanine mutant at Arg-135 (protein, UniProt P13726 33-295, looked up, variant R135A)
# Tissue factor: B1 Tissue factor with A22I, R135A
# B4: Asp-58 to Ala: human tissue factor mutant with alanine substituted for Asp-58 (protein, UniProt P13726 33-295, looked up, variant D58A)
# Tissue factor: B1 Tissue factor with A22I, D58A
# B5: Val-64/Tyr-71 to Ala: human tissue factor double mutant with alanines for Val-64 and Tyr-71 (protein, UniProt P13726 33-295, looked up, variant V64A Y71A)
# Tissue factor: B1 Tissue factor with A22I, V64A, Y71A
# B6: Arg-196: human tissue factor alanine mutant at Arg-196 (protein, UniProt P13726 33-295, looked up, variant R196A)
# Tissue factor: B1 Tissue factor with A22I, R196A
# B7: R44: mhuTF with arginine substituted in place of D44 (protein, UniProt P13726 33-251, looked up, variant D44R)
# extracellular domain: SGTTNTVAAYNLTWKSTNFKTILEWEPKPVNQVYTVQISTKSGRWKSKCFYTTDTECDLTDEIVKDVKQTYLARVFSYPAGNVESTGSAGEPLYENSPEFTPYLETNLGQPTIQSFEQVGTKVNVTVEDERTLVRRNNTFLSLRDVFGKDLIYTLYYWKSSSSGKKTAKTNTNEFLIDVDKGENYCFSVQAVIPSRTVNRKSTDSPVECMGQEKGEFRE
# modifications: extracellular domain
# notes: mhuTF with arginine substituted in place of D44
# B8: Ser-16: human tissue factor mutant with alanine substituted for Ser-16 (protein, UniProt P13726 33-295, looked up, variant S16A)
# Tissue factor: B1 Tissue factor with S16A, A22I
# B9: Thr-17: human tissue factor mutant with alanine substituted for Thr-17 (protein, UniProt P13726 33-295, looked up, variant T17A)
# Tissue factor: B1 Tissue factor with T17A, A22I
# B10: Phe-19: human tissue factor mutant with alanine substituted for Phe-19 (protein, UniProt P13726 33-295, looked up, variant F19A)
# Tissue factor: B1 Tissue factor with F19A, A22I
# B11: S39-T40-S42: human tissue factor triple mutant with alanines at positions 39, 40 and 42 (protein, UniProt P13726 33-295, looked up, variant S39A T40A S42A)
# Tissue factor: B1 Tissue factor with A22I, S39A, T40A, S42A
# B12: S16-T17-K20: human tissue factor triple mutant with alanines at positions 16, 17 and 20 (protein, UniProt P13726 33-295, looked up, variant S16A T17A K20A)
# Tissue factor: B1 Tissue factor with S16A, T17A, K20A, A22I
# B13: K65-D66-K68: human tissue factor triple alanine mutant at positions 65, 66 and 68 (protein, UniProt P13726 33-295, looked up, variant K65A D66A K68A)
# Tissue factor: B1 Tissue factor with A22I, K65A, D66A, K68A
# B14: Asp-145: human tissue factor alanine mutant at Asp-145 (protein, UniProt P13726 33-295, looked up, variant D145A)
# Tissue factor: B1 Tissue factor with A22I, D145A
# B15: Val-146: human tissue factor alanine mutant at Val-146 (protein, UniProt P13726 33-295, looked up, variant V146A)
# Tissue factor: B1 Tissue factor with A22I, V146A
# B16: Phe-147: human tissue factor alanine mutant at Phe-147 (protein, UniProt P13726 33-295, looked up, variant F147A)
# Tissue factor: B1 Tissue factor with A22I, F147A
# B17: Val-198: human tissue factor alanine mutant at Val-198 (protein, UniProt P13726 33-295, looked up, variant V198A)
# Tissue factor: B1 Tissue factor with A22I, V198A
# B18: Asn-199: human tissue factor alanine mutant at Asn-199 (protein, UniProt P13726 33-295, looked up, variant N199A)
# Tissue factor: B1 Tissue factor with A22I, N199A
# B19: Arg-200/Lys-201: human tissue factor alanine double mutant at Arg-200 and Lys-201 (protein, UniProt P13726 33-295, looked up, variant R200A K201A)
# Tissue factor: B1 Tissue factor with A22I, R200A, K201A
# B20: Val-67: human tissue factor mutant with alanine substituted for Val-67 (protein, UniProt P13726 33-295, looked up, variant V67A)
# Tissue factor: B1 Tissue factor with A22I, V67A
# B21: Tyr-71: human tissue factor mutant with alanine substituted for Tyr-71 (protein, UniProt P13726 33-295, looked up, variant Y71A)
# Tissue factor: B1 Tissue factor with A22I, Y71A
# B22: Glu-105: human tissue factor mutant with Ala replacement for Glu-105 (protein, UniProt P13726 33-295, looked up, variant E105A)
# Tissue factor: B1 Tissue factor with A22I, E105A
# B23: Thr-106: human tissue factor mutant with Ala replacement for Thr-106 (protein, UniProt P13726 33-295, looked up, variant T106A)
# Tissue factor: B1 Tissue factor with A22I, T106A
# B24: Arg-131: human tissue factor alanine mutant at Arg-131 (protein, UniProt P13726 33-295, looked up, variant R131A)
# Tissue factor: B1 Tissue factor with A22I, R131A
# B25: Arg-136: human tissue factor alanine mutant at Arg-136 (protein, UniProt P13726 33-295, looked up, variant R136A)
# Tissue factor: B1 Tissue factor with A22I, R136A
# B26: Thr-139/Ser-142: human tissue factor alanine double mutant at Thr-139 and Ser-142 (protein, UniProt P13726 33-295, looked up, variant T139A S142A)
# Tissue factor: B1 Tissue factor with A22I, T139A, S142A
# System: VIIa
# Assay: linked chromogenic assay with purified VIIa and factor X (apparent dissociation constant of TF-VIIa)
# Format: binding
# Conditions: 5 mM Ca2+, Factor X 100 nM
# Method: (§1) The lysate was prepared by treating cell pellets with 15 mM octyl-glucopyranoside for 15 minutes at 37C. followed by a 3-fold dilution. […] Formed TF-VIIa complexes were quantified with substrate factor X added at 100 nM for a fixed time. Samples were then removed from the reaction and quenched in 100 mM EDTA in TBS (20 mM Tris-HCl, 140 mM NaCl, pH 7.4). The formation of Xa in the quenched reaction was determined with the chromogenic peptidyl substrate, Spectrozyme FXa (1.2 mM). The rate of Spectrozyme hydrolysis, measured as the increase in absorbance (mOD/min), was determined at ambient temperature in a kinetic plate reader (Molecular Devices, Mountain View, Calif.) followed by quenching and monitoring of product factor Xa formation using the Spectrozyme FXa.
# Enzfitter (Elsevier Biosoft) programs were employed to calculate the KDapp from the experimentally determined bound VIIa, and free VIIa which was obtained by subtracting bound VIIa from the initial VIIa concentration.
row,Molecule,increase in KDapp for the TF-VIIa interaction compared to wild-type TF (ratio KD mutant/KD wild-type) [fold]
1,B1,11
2,B2,18
3,B3,7.4
4,B4,41
5,B5,2.1
6,B6,3.5

# System: Factor X
# Assay: ability to functionally cleave Factor X (reaction rate Vmax) of D44 mutants
# Format: biochemical
# Conditions: D44 substitution study
# Method: as §1
# Additional mhuTF mutants were prepared based on amino acid residue substitutions at amino acid residue position number D44.
row,Molecule,"loss of function (specific functional activity, Vmax) compared to wild-type [%]"
1,B7,75

# Same assay, conditions: Factor X cleavage; D44 substitution study
row,Molecule,reaction rate (Vmax) [per second]
1,B7,~0.5

# System: recalcified plasma
# Assay: one stage clotting (coagulation) assay of full-length TF mutants in CHO cell lysates
# Format: biochemical
# Conditions: coagulant activity normalized to antigen concentration; full-length mutants expressed in CHO cells
# Method: The full-length TF mutants prepared above were analyzed for function by coagulation assay. […] Coagulation factor deficient plasmas were purchased from George King Bio-medical. The chromogenic substrate, Spectrozyme FXa, was from American Diagnostica Inc. (Greenwich, Conn.).
# An alternative approach was to use a polyvalent antibody purified by affinity for capturing TF followed by detection with the TF8-5G9 monoclonal antibody described above.
# Initiation of coagulation by wild-type and mutant TF in recalcified plasma was determined after lysis of cell pellets from 2×10^6 cells/ml for each expressed full-length mutant with 15 mM octyl-glucopyranoside in HBS for 15 minutes at 37C. followed by a 3-fold dilution.
# All data represented are based on at least three independent determinations performed in duplicate.
row,Molecule,reduction in specific functional activity (loss of function) relative to wild-type TF
1,B8,more than 70%
2,B9,more than 70%
3,B10,more than 70%
4,B1,35%
5,B11,43%
6,B12,98%
7,B13,70%
8,B2,30-50%
9,B14,30-50%
10,B15,30-50%
11,B16,30-50%
12,B17,30-80%
13,B18,30-80%
14,B19,30-80%
15,B20,53%
16,B21,98%
17,B22,more than 50%
18,B23,more than 50%
19,B24,30-50%
20,B3,30-50%
21,B25,30-50%
22,B26,30-50%

# Same assay, conditions: summary statement in the description
row,Molecule,reduction in tissue factor procoagulant cofactor activity when compared to wt-TF [%]
1,B8,≥ 75
2,B9,≥ 75
3,B18,≥ 75
